± gives the standard deviation.
Test: protein stability index of a GFP-peptide fusion (GPS, HEK-293T) (PSI 1-6); higher = more stable
Conditions: c terminus: a fixed tail appended
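Note: 24-mer peptide tiles fused after GFP, lentivirally expressed, FACS-sorted into six equal bins by GFP/DsRed ratio, decoded by Illumina sequencing, PSI is the read-weighted mean bin number.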

Sequence | protein stability index (treatment: DMSO) | protein stability index (treatment: MLN4924 1 uM, 8 h)
LMADLVADISEAEQRTIQAQKESL [APBB1IP] | 3.5 ± 0.56 | 3.6 ± 0.45
SPSSDRVSAIIWEGNECKKMDMSV [PHTF1] | 3.6 ± 0.26 | 3.73 ± 0.43
RWEPSGKAEPRLPDRVYIHPDSPA [TBX6] | 3.98 ± 0.11 | 4.13 ± 0.18
QRITKQLEKWMQKNVEENLYSSSL [GLT8D2] | 2.89 ± 0.28 | 3.03 ± 0.21
LSSGMAVAGMPTAYDLSSVIASGS [CARM1] | 3.02 ± 0.22 | 2.9 ± 0.41
TLAGVGAQGAALEDPDYYGQEIWS [CPXM2] | – | 3.96 ± 0.11
ASNRIIGAKDHASIQMNVAEVSWE [RPS21] | 3.63 ± 0.44 | 3.63 ± 1.4
PESSALQPPPQSSEGLVGALMHVM [WAS] | 3.77 ± 0.17 | 3.58 ± 0.56
CKDSESNKHLCYVFDSEKCVSIPD [GULP1] | 3.27 ± 0.11 | 3.41 ± 0.35
MSEADGLRQRRPLRPQVVTDDDGQ [APMAP] | 5.36 ± 0.28 | 5.37 ± 0.33
LIGDFSKGYLFHTVAGKHQDLKYI [CDC25A] | 2.02 ± 0.32 | 1.81 ± 0.43
CPTEPPDDSCQDQPGTNCALAIKV [ADAMTSL2] | 4.95 ± 0.31 | 5.03 ± 0.41
TQRPAMVQTEDQYQFSYRAALEYL [PTPRD] | 2.91 ± 0.35 | 3.06 ± 0.31
INKIAGHPLAQNERCLHMFLQEEA [SNX12] | 3.07 ± 0.12 | 3.3 ± 0.17
FYSNLILQHEERETRQKKLEVAME [STK38L] | 3.08 ± 0.2 | 3.08 ± 0.33
VSRLTDTTKFTGSHKERFDPSGKG [TPPP] | 4.39 ± 0.1 | 4.5 ± 0.22
GWAKHIPGFSTLSLADQMSLLQSA [ESRRG] | 2.31 ± 0.22 | 2.5 ± 0.16
SRSHDRLPYQRRYRERRDSDTYRC [CLK3] | 4.09 ± 0.27 | 4.24 ± 0.36
PRETLCTELVLSDCMLSEEGATLL [LRRC45] | 3.65 ± 0.2 | 3.83 ± 0.11
QNPPVIKSSGRFLWIKFFAAGELE [NETO1] | 2.57 ± 0.53 | 2.11 ± 0.19
VLSYLGLLSQEKLQEQHLSSPQGV [BCL2L13] | 2.29 ± 0.31 | 2.32 ± 0.38
LREMLSKKHAAYAWPFYKPVDAEA [BRD3] | 2.54 ± 0.26 | 2.99 ± 0.16
TNLVLPSNGSMHNYCPQQTKITSA [EDNRA] | 3.75 ± 0.13 | 3.63 ± 0.14

Sequence | protein stability index (treatment: DMSO) | protein stability index (treatment: MLN4924 1 uM, 8 h)
QAGGEGAGGELGISLNMCLLGALV [PBXIP1] | 2.92 ± 0.65 | 2.23 ± 0.33
TILLDGRRVRLELWDTSGQGRFCT [RAB40C] | 2.16 ± 0.2 | 2.14 ± 0.34
TDYINASFMDGYKQKNAYIGTQGP [PTPN9] | 2.94 ± 0.24 | 3.21 ± 0.21
TPTPQALYPDLSCPEGLEELLSAP [SPSB2] | 4.54 ± 0.24 | 4.55 ± 0.3
NEDPLVLLAWRCTKLSLLAIHGYT [FBXO33] | 3.05 ± 0.33 | 2.91 ± 0.65
TWHDERFLYMLMEYVPGGELFSYL [PRKX] | 2.85 ± 0.7 | 2.75 ± 0.35
KEKEQENERKVAQLAEENERLKQE [DDIT3] | 5.52 ± 0.1 | 5.55 ± 0.15
VRGHHPKSGEEAVTVLEDLEKGLE [ZNF232] | 4.73 ± 0.21 | 4.72 ± 0.63
QLSPSPTPASQSPKKPPAKDPLAD [SNAP91] | 5.49 ± 0.26 | 5.53 ± 0.29
EHDFLDRDAIEALCRRLNTLNKCA [DLC1] | 2.73 ± 0.36 | 2.73 ± 0.49
VLENNLEAVARHMLIFSLALEEPE [DNAAF3] | 2.74 ± 1.1 | 2.52 ± 0.37
QIQRISLNTLTLNVKSEKVYTRHG [FLOT1] | 2.6 ± 0.14 | 3.01 ± 0.25
ISLEERRAQLPKYQRNLPRPGQAP [ZNF207] | 3.41 ± 0.12 | 3.67 ± 0.32
EDAYKIRIRIDDEPANLDILDTAG [RIT1] | 3.38 ± 0.28 | 3.47 ± 0.65
LPAGPLPAPLLVLCPSRAELDRWL [PLEKHN1] | 2.81 ± 0.16 | 2.6 ± 0.22
KREREKEDIALNKHRSRRKWCFWN [RHOBTB1] | 2.65 ± 0.29 | 3.07 ± 0.51
MSTKESDFLCLLGVSYTFDNEDSE [MIA2] | 2.92 ± 0.14 | 2.91 ± 0.29
GQFVMKTRRTLKGHGNKVLCMDWC [GNB5] | 2.16 ± 0.32 | 2.32 ± 0.3
TNTGPAGSSASTSPAPLDTCPSSS [DYRK1B] | 5.24 ± 0.17 | 5.31 ± 0.18
IVNSTEESDDAFDTVTIPVPSEEP [IQUB] | 5.5 ± 0.25 | 5.55 ± 0.21
DGSVLLIPRTMADQQARRQERKPK [NFE2L1] | 3.5 ± 0.14 | 3.63 ± 0.31
VCGKSFSRTTCLFLHLRTHTEERP [ZNF8] | 2.23 ± 0.56 | 1.93 ± 0.38
NITDETPDNCEMFLNFNGMKLFLD [ZER1] | 3.62 ± 0.18 | 3.65 ± 0.46

Sequence | protein stability index (treatment: DMSO) | protein stability index (treatment: MLN4924 1 uM, 8 h)
IPKSSDPEMRWNKGTILKASVDYI [TFE3] | 2.79 ± 0.32 | 3.03 ± 0.26
PAPATQMPSTPGFVGYNPYSHLAY [SMARCE1] | 2.37 ± 0.21 | 2.44 ± 0.27
AAVAQKPRSHFTTPAPMSSAWKTV [MYBL2] | 3.06 ± 0.14 | 2.97 ± 0.22
GKAFPSGCSAVSEPASESVVGALP [TRAF3IP2] | 4.33 ± 0.14 | 4.59 ± 0.24
VFYLWSAIEIFRYSFYMLTCIDMD [HACD3] | 3.13 ± 0.15 | 3.5 ± 0.47
EDDPSVLYVSLHRYDHGTFFPMGD [HDAC6] | 2.29 ± 0.31 | 2.37 ± 0.3
WAANAGVTASPPTDLIWKNQNSWG [LMNB1] | 2.46 ± 0.26 | 2.48 ± 0.5
ADIKQYIGPPSAAAIFKIYLSCLE [TRIP13] | 2.19 ± 0.4 | 2.27 ± 0.22
LEDLESELDDPGQPVSLRRRKREV [ZNF24] | 5.38 ± 0.09 | 5.49 ± 0.16
ATPEQGLSAFYLSYFDMLYPEDSS [SPDEF] | 2.75 ± 0.48 | 2.8 ± 0.41
MADWARAQSPGAVEEILDRENKRM [BET1L] | 4.71 ± 0.35 | 4.75 ± 0.21
GYRGYQYILECDHHGGDYKHWREW [CRYBA1] | 2.16 ± 0.25 | 1.93 ± 0.14
TDGDHNVYPRPPEPREFSSRNFGV [ZC2HC1C] | 3.89 ± 0.23 | 3.97 ± 0.18
PQEKLWQQLRRGRYVEFNLLYDRG [CPOX] | 2.56 ± 0.11 | 2.55 ± 0.42
RTVQSLEIDLDSMRNLKASLENSL [KRT18] | 3.14 ± 0.45 | 3.25 ± 0.27
ISHQQCWASTSPGTDLPLSEIPRG [TRIM15] | 3.51 ± 0.21 | 3.63 ± 0.53
SLPQNQCYMATTKSQTACLPFVLA [EHMT1] | 2.35 ± 0.08 | 2.23 ± 0.15
MKKGGIFSAEFLKVFIPSLFLSHV [BNIP3L] | 3 ± 1.1 | 2.51 ± 0.56
AEASHYNSDLNNLLFCCQCVDVVF [RHOBTB3] | 2.52 ± 0.49 | 2.54 ± 0.54
DKHGCPAYVSPEILNTTGTYSGKA [TRIB1] | 4.44 ± 0.26 | 4.52 ± 0.12
ARRDAKKLVRSPSGLRMVPEHRAF [ZFYVE21] | 3.11 ± 0.31 | 3.56 ± 0.17
LATASYDTRVYIWDPHNGDILMEF [WSB1] | 2.85 ± 0.12 | 2.86 ± 0.26
KTIEDLRNKIIAATIENAQPILQI [KRT16] | 2.36 ± 0.25 | 2.33 ± 0.1

Sequence | protein stability index (treatment: DMSO) | protein stability index (treatment: MLN4924 1 uM, 8 h)
ITGAYDTIKHPGGAGAEESELQAY [MCOLN1] | 4.84 ± 0.19 | 5.02 ± 0.19
AGNNEHCGNIKAPSLQAWNDAPCD [CD207] | 4.75 ± 0.33 | 4.71 ± 0.13
GLRLRLPRRESLLRGLCRPLRPLL [C6orf223] | 2.15 ± 0.13 | 2.2 ± 0.29
EETVTMLEDVERELDGPKQIFFGR [ZNF396] | 4.5 ± 0.14 | 4.49 ± 0.26
NFLFRNAASTLTERPCYNRRASKL [ANKRD40] | 3.19 ± 0.28 | 3.4 ± 0.12
GVKSRIQALRQMNEGAIDCVNYEG [DLC1] | 3.77 ± 0.32 | 3.87 ± 0.36
HLPVTFPGKDYDADRQCQLTFGPD [ADAMTS4] | 4.12 ± 0.26 | 4.38 ± 0.24
VSRREGALGWAPAAPPPLKDDPEG [ZBED3] | 5.24 ± 0.37 | 5.43 ± 0.12
ALQSRAAQRHRGSAKDGGPQPPDA [PLEKHN1] | 4.57 ± 0.49 | 4.96 ± 0.34
ILVQTPESESPQSHRAAGSGVSDY [TRIM9] | 4.49 ± 0.37 | 4.49 ± 0.21
MVGGGQPCGPNMSEVSCKKRDDYL [DCTD] | 4.11 ± 0.33 | 4.21 ± 0.19
AIKCSPSLHVDDRERMELLEEAKK [RIPK4] | 5.12 ± 0.65 | 5.28 ± 0.33
SKRMTFQMPKFDLGPLLSEPLVLY [MYOZ1] | 2.36 ± 0.39 | 2.26 ± 0.28
NKTPGAPESSALQPPPQSSEGLVG [WAS] | 5.41 ± 0.35 | 5.3 ± 0.31
VPGHQTPSDLDQFSDSSLIEDSQA [LURAP1L] | 5.39 ± 0.15 | 5.41 ± 0.17
LLNLVDHTEVVRDLTFAPDGSLIL [WSB1] | 2.24 ± 0.13 | 2.16 ± 0.16
ASGLGLEITTQFLIYASYFALIAV [SLC19A2] | 3.26 ± 0.26 | 3.13 ± 0.47
PETEAVSSSQEIPTMPQPIEKVSV [ZMYND11] | 5.24 ± 0.33 | 5.36 ± 0.26
GHSQEKTHSREKSSQESGEEAGSQ [CHGB] | 5.52 ± 0.56 | 5.45 ± 0.33
RFQAMEETHLRHMKALLGSYAHSV [FCHO1] | 2.38 ± 0.37 | 2.38 ± 0.31
EKGILTTEKQNFLLFDMTTHPVTN [GOLPH3L] | 3.69 ± 0.32 | 3.61 ± 0.27
